# Measured values reported in the nanobody polyreactivity screen of Harvey et al. (2022).
# Assay: yeast display, Sf9 membrane polyspecificity reagent, FACS + sequencing; frameworks hold sequencing errors
# Procedure, shortened: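 Nanobodies came from a synthetic yeast display library in Saccharomyces cerevisiae BJ5465, induced with galactose for 36–48 hours and stained for 1 hour at 4 °C with 10% biotinylated, detergent-solubilized Sf9 membrane reagent. Cells were enriched on streptavidin microbeads and then FACS-sorted, with low and high (top ~1%) gates set on anti-HA fluorescence for expression and streptavidin fluorescence for reagent binding. Each polyreactivity label reflects the gate a clone came from. Genes were amplified by colony PCR, sequenced by MiSeq 2 × 250 and filtered by CDR length.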
row,Sequence,polyreactivity (PSR sort gate)
1,QVQLVESGGGLVQAGCSLRLSCDASGFIFKVYAMGWYRQAPGKERELVASISFSGGRTYYADSVKGRFTISRDNAKNTFYLQMNSLKPEDSAVYYCNRSYVNKYYSWGQGTQVTVSS,high polyreactivity
2,QVQLVESGGGLVQAGGSLRLSCAASGRIFTYNTMGWYRQAPGKERELVAAITSGGRTYYADSVKGRFTISRDNAKNTVYLQMNSLKPEDTAVYYCAAGRSRFVTRYDYWGQGTQVTVSS,high polyreactivity
3,QVQLVESGGGLVQAGGSLRISCAASGRIFYVYAMGWYRQAPGKERELVAAISTGSPTYYADSVNGRFTISRDNAKNTVYLQMNSLKPEDTAVYFCATGSIHGDFWSFRHQYYYWGQGTQVTVSS,low polyreactivity
4,QVQLVESGGGLVQSGGSLRLSCAASGLTFRRNPMGRYRQAPGKERELVATITSGGSTNYADSVKGRFTISRDNAKNTVYLQMNSLKTEDTAVYYCAARTTYITPWAGRYFSWDYDYWGQGTQVTVSS,high polyreactivity
5,QVQLVESGGGLVQAGGSLGLSCAASGRTFGRYVMGWYRLAPGTEWELVAAIRSSGGGTYYADSVKGRFTISRDNAKNTVYLQMNSLKPEETAVYYCAKEYSIGIRWEYDYWGQGTQVTVSS,low polyreactivity
6,QVQLVESGGGLVQAGGSLRLSCAASGSTFKYYVMGWYRQAPGKERELVAAISGRTGSTYYADSVKGRFTISRDNAKNTVYLQMNSLKPEDTAVYYCAKRGFLYWDHVSGFYRYDYWGQGTQVTVSS,low polyreactivity
7,QVQLVESGGGLVQAGGSLRLSCAASGSIFGYYVMGWYRQAPGKERELVAAITKSGGSTYYADSVKGRFTISRDNAKNTVYLQKNSLKPEDTAVYYCAKRFYSTGYGRFDYWGQGTQVTVSS,high polyreactivity
8,QVQLVESGGGLVQAGCSLRLSCAASGGTFYVNAMGCYRQAPGKDRELVAGIRESGASTYYADSVKGRFTISLDNAKNTVYLQMNSLKPEDTAVYYCAVDGPYPAASQSEVGYDYWGQGTQVTVSS,low polyreactivity
9,QVQLVESGGGLVQAGGSLRLSCAASGFTFNIKTKGSDRQAPGKDRELVAAITSGGNSSYADSVKGRLTISRDNAKNTVYLQMNRVKPEDTAVYYCATEDFRTDTGMYYWGQGTQVTVSS,low polyreactivity
10,QVQLVESGGGLVQAGGSLRLSCAASGRTFYYYAMGWYRQAPGKERELVAAITGSGANTYYADSVKGRFTISRDNAKNTVYLQMKSLKPEDTAVYYCNKYRTLRNGWGSGYYYWGQGTQVTVSS,high polyreactivity
11,QVQLVESGGGLVQAGGSLRLSCAASGSTFQTNARGWYRQAPGKERELVAAITWSGTSTYADSVKGRFTISRDNAKNPGYFQMNSLKPDDTAVYYCAAPILSFPSPYVQYDYWGLGTQVTVSS,low polyreactivity
12,QVQLVESGGGLVQAGGSLRLSCAASGSIFTVNAMGWYRQAPGKEREFVAAITGGGTSTYYADSVKGRFTISRDNAKNTVYLQMNSLKPEDTAVYYCAATTYHYSPTYGYWGQGTQVTVSS,low polyreactivity
13,QVQLVESGGGLVQAGGSLRLSCAASGSIFLANAMGWYRQAPGKERELVAGISSSVTTNYADSVKGRFTISRDNAKNTVYLQMNSLKPEDTAVYYSNAVYGVYDFNYWVQGTQVTVSS,low polyreactivity
14,QVQLVESGGGLVQAGGSLRLSCAASGSTFDNYAMGWYRQAPGKERELVAAITTGVTTYYADSVKGRFTISRDNAKNTVYLQMISLKPEDTAVYYCAADYVSYSQARHEYGYWGQGTQVTVSS,low polyreactivity
15,QVQLVESGGGLVQAGGSLRLSCAASGFIFSRYAMGCYSPAPGKVIELVAAISSRGGSTYYADSVKGRFTISRDNAKNTVYLQMNSLKPEDTAVYYCAARGPTFGVDYGYWGQGTQVTLSS,high polyreactivity
16,QVQLVESGGGLVQAGGSLRLSCAASGSIFARYAMGWYRQAPGKERELVATITRGGSTNYADSVKGRFTISRDNAKNTVYLQMNSLKPDDTAVYYCARTSYGRLDYWGQGPQVTVSS,low polyreactivity
17,QVQLVESGGGFVQAGGSLRLSCAASGRIFRLYAMGWYRQAPGKEREFVAAITFSGGRTYYADSVKGRFTISRDNAKNNVYLQMNSLKPEDTAVYYCAARGQTGYYSGVGYWGQGTQVTVSS,high polyreactivity
18,QVQLVESGGGLVQAGGSLRLSCAASGSIFAVYAMGWYRQAPGKERELVASISRTGTTNYADSVKGRFTISRDNAKNTVYLQMYSLKPEDTAVYYCAARPGSWYPSVPSYNYWGQGTQVTVSS,low polyreactivity
19,QVQLVESGGGLVQAGGSLRLSCAASGITFPSYTMGWYRQAPGKERELVATIRNGGSTYYADSVKGRFTISRDNAKNTVYLHMNSLKPEDTAVYYCAAVPLWDYKVFYYLLYDYWGQGTQVTVSS,low polyreactivity
20,QVQLVESGGGLVQAGGSLRLSCAASGSTFTDYDMGWYRQAPGKERELVAAITSGGSTNYADSVKGRCTISRDNAKNTVYLQMNRLKPEDTAVYYWAAADADSKYDYWGQGTQVTVSS,low polyreactivity
21,QVQLVESGGGLVQAGGSLRLSCAASGRISGYAMGWYRQAPGKERELVAAISTRGGTTYYADSVKGRFTISRDNAKNTVYLQMNSLSPEDTAVYYCNAASSRWPEYDYWGQGTQVTVSS,high polyreactivity
22,QVQLVESGGGLVQAGGSLRLSCAASGSTFKNNAMGWYRQAPGKEREFVASISKRGGSTYYADSVKGRFTISRDNAKNTVYLQMNSLKPEDTAVYYCGKTYWSYGWSHGDYGEFDYWGQGSQVTVSS,high polyreactivity
